In patent US20250092148A1 (Kyowa Kirin, published 2025):
Changes are numbered by the printed parent chain.

What was measured:
Assay in all cases: flow cytometry, Fab 0.25 µg/mL on HEK-293T cells expressing the mutant
human CD116 D250A = target: T1, human CD116 D250A (human, UniProt P15509 23-400)
T1 construct: whole, on cells
T1 sequence (looked up): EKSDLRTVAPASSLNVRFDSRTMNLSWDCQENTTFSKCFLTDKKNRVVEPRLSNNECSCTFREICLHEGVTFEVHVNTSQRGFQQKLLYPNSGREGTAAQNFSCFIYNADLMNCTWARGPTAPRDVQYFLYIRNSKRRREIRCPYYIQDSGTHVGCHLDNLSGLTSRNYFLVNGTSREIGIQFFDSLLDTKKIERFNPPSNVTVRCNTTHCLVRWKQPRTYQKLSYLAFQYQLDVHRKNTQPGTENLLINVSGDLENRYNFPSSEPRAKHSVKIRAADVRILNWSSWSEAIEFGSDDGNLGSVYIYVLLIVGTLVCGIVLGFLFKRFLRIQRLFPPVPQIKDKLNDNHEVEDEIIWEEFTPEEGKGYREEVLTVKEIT

human CD116 K213A = target: T2, human CD116 K213A (human, UniProt P15509 23-400)
T2 construct: whole, on cells
T2 sequence (looked up): T1 sequence (looked up) with K191A, A228D

human CD116 Y248A = target: T3, human CD116 Y248A (human, UniProt P15509 23-400)
T3 construct: whole, on cells
T3 sequence (looked up): T1 sequence (looked up) with Y226A, A228D

human CD116 R302A = target: T4, human CD116 R302A (human, UniProt P15509 23-400)
T4 construct: whole, on cells
T4 sequence (looked up): T1 sequence (looked up) with A228D, R280A

human CD116 N156A = target: T5, human CD116 N156A (human, UniProt P15509 23-400)
T5 construct: whole, on cells
T5 sequence (looked up): T1 sequence (looked up) with N134A, A228D

human CD116 D300A = target: T6, human CD116 D300A (human, UniProt P15509 23-400)
T6 construct: whole, on cells
T6 sequence (looked up): T1 sequence (looked up) with A228D, D278A

B1: anti-CD116 antibody 116-408, Fab (Fab, V domains shown)
VH: EVQLVQSGAEVKKPGASVKVSCKVSGYTLTDLSMHWVRQAPGKGLEWMGGFDPEDGERIYAQKFQGRVTMTEDTSTDTAYMELSSLRSEDTAVYYCATGLFYYYYGMDVWGQGTMVTVSS
VL: not shown
Binding Reactivity (% WT) (human CD116 D250A): 95.8 % WT
Binding Reactivity (% WT) (human CD116 K213A): 98.4 % WT
Binding Reactivity (% WT) (human CD116 Y248A): 78.2 % WT
Binding Reactivity (% WT) (human CD116 R302A): 93.8 % WT
Binding Reactivity (% WT) (human CD116 N156A): 5.8 % WT
Binding Reactivity (% WT) (human CD116 D300A): 84.8 % WT
